Assay: dynamic light scattering; self-association of NT below pH 6.4

B1: NT, N-terminal fragment of major ampullate spidroin (MaSp) 1 from Euprosthenops australis (protein)
chain: GSGNSHTTPWTNPGLAENFMNSFMQGLSSMPGFTASQLDDMSTIAQSMVQSIQSLAAQGRTSPNKLQALNMAFASSMAEIAASEEGGGSLSTKTSSIASAMSNAFLQTTGVVNQPFINEITQLVSMFAQAGMNDVSA
hydrodynamic size of polymers: polymers with a hydrodynamic size of ˜700 nm below pH 6.4

Source: patent US8642734
